# Patent publication US20250282851A1
# B1: monoclonal antibody A38 (antibody, V domains shown)
# VH: VQLVQELGPGLVKPSETLSLTCAVSGYSISSPYSWGWIRQPPGKGLEWIGGVYSSGEIRHLDPSLKSRVTLSLDTSKNQFSLKLNSVTAADTAVYFCASANGGVAQDAFDFWGQGLRVTVSS
# VL: QPVLTQPPSLSAPPGASARLPCTLSSDLSVTSLNIYWYQQKSGSAPRLFLYYYSDSDKQLGPGVPSRVSGSKETSSNTALLFISGLQPEDEADYYCQVYDSSAYVLFGGGTRLTVLG
# Tests used:
# [1] = target: Gn protein of Rift Valley fever virus (Rift Valley fever virus)
# [2] = target: purified truncated Gn protein of Rift Valley fever virus (Rift Valley fever virus)
# [3] = target: purified truncated Gn protein of Rift Valley fever virus (Rift Valley fever virus); assay: ELISA, truncated Gn coated at 2 ug/mL, 50 uL 293T expression supernatant
binder,measurement,setting,value
B1,Kd,[1],0.972 nM
same,koff,[1],0.00013 s⁻¹
same,kon,[1],133000 M⁻¹ s⁻¹
same,EC50,[2],4.51 ng/mL
same,OD value (OD450 nm-OD630 nm),[3],1.4 OD
